Data reported in IntAct's records for PubMed 25910212.

B1: Adenosylhomocysteinase (Homo sapiens), P23526 (parent)
chain: MSDKLPYKVADIGLAAWGRKALDIAENEMPGLMRMRERYSASKPLKGARIAGCLHMTVETAVLIETLVTLGAEVQWSSCNIFSTQDHAAAAIAKAGIPVYAWKGETDEEYLWCIEQTLYFKDGPLNMILDDGGDLTNLIHTKYPQLLPGIRGISEETTTGVHNLYKMMANGILKVPAINVNDSVTKSKFDNLYGCRESLIDGIKRATDVMIAGKVAVVAGYGDVGKGCAQALRGFGARVIITEIDPINALQAAMEGYEVTTMDEACQEGNIFVTTTGCIDIILGRHFEQMKDDAIVCNIGHFDVEIDVKWLNENAVEKVNIKPQVDRYRLKNGRRIILLAEGRLVNLGCAMGHPSFVMSNSFTNQVMAQIELWTHPDKYPVGVHFLPKKLDEAVAEAHLGKLNVKLTKLTEKQAQYLGMSCDGPFKPDHYRY
partner: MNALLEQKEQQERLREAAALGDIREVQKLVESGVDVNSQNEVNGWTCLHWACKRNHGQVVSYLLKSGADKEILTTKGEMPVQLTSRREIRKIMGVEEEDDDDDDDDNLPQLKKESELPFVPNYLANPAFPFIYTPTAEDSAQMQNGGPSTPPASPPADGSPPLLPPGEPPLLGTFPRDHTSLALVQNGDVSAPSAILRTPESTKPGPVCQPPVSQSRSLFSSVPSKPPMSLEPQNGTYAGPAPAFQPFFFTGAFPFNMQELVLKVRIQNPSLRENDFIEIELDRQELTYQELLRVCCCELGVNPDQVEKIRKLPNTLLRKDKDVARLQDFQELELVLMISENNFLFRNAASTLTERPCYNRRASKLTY
B2: Myelin proteolipid protein (Homo sapiens), P60201-2 (parent)
chain: MGLLECCARCLVGAPFASLVATGLCFFGVALFCGCGHEALTGTEKLIETYFSKNYQDYEYLINVIHAFQYVIYGTASFFFLYGALLLAEGFYTTGAVRQIFGDYKTTICGKGLSATFVGITYALTVVWLLVFACSAVPVYIYFNTWTTCQSIAFPSKTSASIGSLCADARMYGVLPWNAFPGKVCGSNLLSICKTAEFQMTFHLFIAAFVGAAATLVSLLTFMIAATYNFAVLKLMGRGTKF
partner: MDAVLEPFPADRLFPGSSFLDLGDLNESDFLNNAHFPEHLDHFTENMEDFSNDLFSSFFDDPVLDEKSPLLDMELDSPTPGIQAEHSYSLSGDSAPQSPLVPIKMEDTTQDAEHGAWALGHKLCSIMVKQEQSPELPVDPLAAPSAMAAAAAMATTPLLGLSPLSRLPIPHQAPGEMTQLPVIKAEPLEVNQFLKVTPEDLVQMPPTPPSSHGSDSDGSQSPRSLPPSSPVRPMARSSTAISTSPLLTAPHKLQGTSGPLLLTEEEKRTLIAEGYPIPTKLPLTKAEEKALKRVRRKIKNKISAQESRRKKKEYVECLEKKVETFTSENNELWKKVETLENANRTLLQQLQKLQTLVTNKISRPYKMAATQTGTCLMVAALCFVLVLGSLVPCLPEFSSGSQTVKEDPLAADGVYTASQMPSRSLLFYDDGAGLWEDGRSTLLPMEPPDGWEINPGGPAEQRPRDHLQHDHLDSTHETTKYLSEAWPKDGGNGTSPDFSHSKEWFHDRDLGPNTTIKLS
B3: U4/U6 small nuclear ribonucleoprotein Prp31 (Homo sapiens), Q8WWY3 (parent)
chain: MSLADELLADLEEAAEEEEGGSYGEEEEEPAIEDVQEETQLDLSGDSVKTIAKLWDSKMFAEIMMKIEEYISKQAKASEVMGPVEAAPEYRVIVDANNLTVEIENELNIIHKFIRDKYSKRFPELESLVPNALDYIRTVKELGNSLDKCKNNENLQQILTNATIMVVSVTASTTQGQQLSEEELERLEEACDMALELNASKHRIYEYVESRMSFIAPNLSIIIGASTAAKIMGVAGGLTNLSKMPACNIMLLGAQRKTLSGFSSTSVLPHTGYIYHSDIVQSLPPDLRRKAARLVAAKCTLAARVDSFHESTEGKVGYELKDEIERKFDKWQEPPPVKQVKPLPAPLDGQRKKRGGRRYRKMKERLGLTEIRKQANRMSFGEIEEDAYQEDLGFSLGHLGKSGSGRVRQTQVNEATKARISKTLQRTLQKQSVVYGGKSTIRDRSSGTASSVAFTPLQGLEIVNPQAAEKKVAEANQKYFSSMAEFLKVKGEKSGLMST
partner: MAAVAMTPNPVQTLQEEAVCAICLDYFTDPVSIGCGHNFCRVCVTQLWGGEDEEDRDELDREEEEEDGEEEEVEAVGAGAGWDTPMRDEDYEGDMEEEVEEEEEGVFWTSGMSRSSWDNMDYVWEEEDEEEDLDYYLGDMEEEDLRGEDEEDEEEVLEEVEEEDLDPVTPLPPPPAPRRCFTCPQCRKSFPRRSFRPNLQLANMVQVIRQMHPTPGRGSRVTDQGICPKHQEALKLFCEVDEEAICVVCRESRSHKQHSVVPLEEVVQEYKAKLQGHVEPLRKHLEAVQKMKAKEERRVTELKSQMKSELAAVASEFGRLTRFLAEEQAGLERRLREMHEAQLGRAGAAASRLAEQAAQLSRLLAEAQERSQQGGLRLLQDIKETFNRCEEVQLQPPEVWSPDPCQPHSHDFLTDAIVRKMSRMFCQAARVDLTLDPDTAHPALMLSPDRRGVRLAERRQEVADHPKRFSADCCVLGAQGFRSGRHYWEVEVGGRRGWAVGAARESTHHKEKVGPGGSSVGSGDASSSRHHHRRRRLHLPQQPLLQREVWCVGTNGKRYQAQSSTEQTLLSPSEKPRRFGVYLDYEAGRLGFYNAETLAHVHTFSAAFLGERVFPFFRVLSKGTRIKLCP
B4: U4/U6 small nuclear ribonucleoprotein Prp31 (Homo sapiens), Q8WWY3 (parent)
chain: B3 chain
partner: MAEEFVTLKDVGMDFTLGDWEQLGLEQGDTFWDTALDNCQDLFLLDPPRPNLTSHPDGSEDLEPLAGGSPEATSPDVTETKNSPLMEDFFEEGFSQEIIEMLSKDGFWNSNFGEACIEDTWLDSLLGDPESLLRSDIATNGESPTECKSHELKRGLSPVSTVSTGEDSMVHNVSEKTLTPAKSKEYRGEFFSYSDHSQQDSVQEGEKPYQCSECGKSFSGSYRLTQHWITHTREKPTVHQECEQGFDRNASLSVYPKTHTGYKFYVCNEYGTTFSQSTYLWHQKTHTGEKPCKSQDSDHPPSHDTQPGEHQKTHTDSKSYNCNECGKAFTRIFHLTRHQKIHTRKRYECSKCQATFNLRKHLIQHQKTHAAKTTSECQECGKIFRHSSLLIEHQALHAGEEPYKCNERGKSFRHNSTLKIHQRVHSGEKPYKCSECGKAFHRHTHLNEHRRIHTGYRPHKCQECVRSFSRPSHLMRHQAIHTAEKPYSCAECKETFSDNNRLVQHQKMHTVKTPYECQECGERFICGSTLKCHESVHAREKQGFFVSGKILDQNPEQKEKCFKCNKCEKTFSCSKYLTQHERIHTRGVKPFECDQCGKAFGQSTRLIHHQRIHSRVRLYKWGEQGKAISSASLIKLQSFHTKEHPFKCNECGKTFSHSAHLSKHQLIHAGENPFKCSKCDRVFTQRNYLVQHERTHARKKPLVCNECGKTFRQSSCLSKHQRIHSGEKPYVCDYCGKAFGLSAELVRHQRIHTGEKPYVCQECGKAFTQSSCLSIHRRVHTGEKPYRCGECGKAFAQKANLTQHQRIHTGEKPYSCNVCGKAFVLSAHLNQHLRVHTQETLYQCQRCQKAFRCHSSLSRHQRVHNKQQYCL
B5: Tyrosine-protein kinase BTK (Homo sapiens), Q06187 (parent)
chain: MAAVILESIFLKRSQQKKKTSPLNFKKRLFLLTVHKLSYYEYDFERGRRGSKKGSIDVEKITCVETVVPEKNPPPERQIPRRGEESSEMEQISIIERFPYPFQVVYDEGPLYVFSPTEELRKRWIHQLKNVIRYNSDLVQKYHPCFWIDGQYLCCSQTAKNAMGCQILENRNGSLKPGSSHRKTKKPLPPTPEEDQILKKPLPPEPAAAPVSTSELKKVVALYDYMPMNANDLQLRKGDEYFILEESNLPWWRARDKNGQEGYIPSNYVTEAEDSIEMYEWYSKHMTRSQAEQLLKQEGKEGGFIVRDSSKAGKYTVSVFAKSTGDPQGVIRHYVVCSTPQSQYYLAEKHLFSTIPELINYHQHNSAGLISRLKYPVSQQNKNAPSTAGLGYGSWEIDPKDLTFLKELGTGQFGVVKYGKWRGQYDVAIKMIKEGSMSEDEFIEEAKVMMNLSHEKLVQLYGVCTKQRPIFIITEYMANGCLLNYLREMRHRFQTQQLLEMCKDVCEAMEYLESKQFLHRDLAARNCLVNDQGVVKVSDFGLSRYVLDDEYTSSVGSKFPVRWSPPEVLMYSKFSSKSDIWAFGVLMWEIYSLGKMPYERFTNSETAEHIAQGLRLYRPHLASEKVYTIMYSCWHEKADERPTFKILLSNILDVMDEES
B6: Phakinin (Homo sapiens), Q13515 (parent)
chain: MSERRVVVDLPTSASSSMPLQRRRASFRGPRSSSSLESPPASRTNAMSGLVRAPGVYVGTAPSGCIGGLGARVTRRALGISSVFLQGLRSSGLATVPAPGLERDHGAVEDLGGCLVEYMAKVHALEQVSQELETQLRMHLESKATRSGNWGALRASWASSCQQVGEAVLENARLMLQTETIQAGADDFKERYENEQPFRKAAEEEINSLYKVIDEANLTKMDLESQIESLKEELGSLSRNYEEDVKLLHKQLAGCELEQMDAPIGTGLDDILETIRIQWERDVEKNRVEAGALLQAKQQAEVAHMSQTQEEKLAAALRVELHNTSCQVQSLQAETESLRALKRGLENTLHDAKHWHDMELQNLGAVVGRLEAELREIRAEAEQQQQERAHLLARKCQLQKDVASYHALLDREESG
partner: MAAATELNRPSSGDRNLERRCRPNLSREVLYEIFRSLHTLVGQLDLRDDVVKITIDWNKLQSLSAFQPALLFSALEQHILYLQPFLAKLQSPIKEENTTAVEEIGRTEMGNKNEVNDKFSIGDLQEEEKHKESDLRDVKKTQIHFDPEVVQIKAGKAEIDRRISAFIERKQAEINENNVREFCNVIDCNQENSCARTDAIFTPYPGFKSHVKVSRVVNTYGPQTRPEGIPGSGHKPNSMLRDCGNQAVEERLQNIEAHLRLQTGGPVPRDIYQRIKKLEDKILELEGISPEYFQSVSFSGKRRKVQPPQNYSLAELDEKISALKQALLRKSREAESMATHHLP

Variants of: B1
Details: with anr40_human ANKRD40, Q6AI12

effect of a mutation on the interaction | Variant
with no effect | Y143C

Variants of: B2
Details: with cr3l1_human CREB3L1, Q96BA8

effect of a mutation on the interaction | Variant
disrupting interaction strength | W128L
disrupting interaction strength | A213E
disrupting interaction strength | P15L
disrupting interaction strength | L87P

Variants of: B3
Details: with tri41_human TRIM41, Q8WV44

effect of a mutation on the interaction | Variant
with no effect | L107V

Variants of: B4
Details: with zn473_human ZNF473, Q8WTR7

effect of a mutation on the interaction | Variant
with no effect | L107V

Variants of: B5
Details: with meox2_human MEOX2, P50222
Sequence of meox2_human MEOX2, P50222 (P50222 whole entry): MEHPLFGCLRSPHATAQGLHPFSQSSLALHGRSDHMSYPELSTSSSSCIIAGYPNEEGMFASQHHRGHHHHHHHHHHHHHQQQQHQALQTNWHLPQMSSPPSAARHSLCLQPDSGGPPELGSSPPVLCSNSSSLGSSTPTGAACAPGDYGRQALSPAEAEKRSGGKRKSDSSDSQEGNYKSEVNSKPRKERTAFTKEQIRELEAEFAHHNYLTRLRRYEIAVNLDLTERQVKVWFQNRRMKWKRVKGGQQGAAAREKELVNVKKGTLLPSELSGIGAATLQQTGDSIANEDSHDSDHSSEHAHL

effect of a mutation on the interaction | Variant
disrupting interaction strength | P565L

Variants of: B6
Details: with MBIP

effect of a mutation on the interaction | Variant
with no effect | A407D
with no effect | R339H
